± gives the uncertainty stated by the source.
Test: self-splicing fitness, log relative to wild type (ln ratio); higher = more splicing; Tetrahymena group I intron in knt gene, E. coli kanamycin selection, DiMSum; sequences stand for … in CUCUCU…GGAGGGAAAAGUUAUCAGGCAUGCACCUGGUAGCUAGUCUUUAAACCAAUAGAUUGCAUCGGUUUAAAAGGCAAGACCGUCAAAUUGCGGGAAAGGGGUCAACAGCCGUUCAGUACCAAGUCUCAGGGGAAACUUUGAGAUGGCCUUGCAAAGGGUAUGGUAAUAAGCUGACGGACAUGGUCCUAACCACGCAGCCAAGUCCUAAGUCAACAGAUCUUCUGUUGAUAUGGAUGCAGUUCACAGACUAAAUGUCGGUCGGGGAAGAUGUAUUCUUCUCAUAAGAUAUAGUCGGACCUCUCCUUAAUGGGAGCUAGCGGAUGAAGUGAUGCAACACUGGAGCCGCUGGGAACUAAUUUGUAUGCGAAAGUAUAUUGAUUAGUUUUGGAGUACUCGUGGUCG
How it was run: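 Six replicate transformations of E. coli BL21(DE3) with a pET-22b(+) library were grown overnight at 37°C or 30°C. The library randomised all eight P1ex-region intron nucleotides, the intron lying in the knt kanamycin-resistance gene, and plates were LB agar with or without 25 μg/mL kanamycin plus 100 μg/mL carbenicillin, 50 μM IPTG and 0.2% rhamnose. Pooled colonies were amplicon-sequenced on an Illumina HiSeq 2500, and fitness is the DiMSum error-weighted combination of wild-type-normalised replicate fold changes, kanamycin versus none.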

Sequence | self-splicing fitness (ln) (30 °C) | self-splicing fitness (ln) (37 °C)
CGCUAGCAAUAUUACGUAAC | -4.07 ± 0.31 | -2.87 ± 0.38
GAUGAGCAAUAUUACGGGGA |  | -2.04 ± 0.25
GUGGAGCAAUAUUACGCAUA |  | -1.1 ± 0.4
UAGGAGCAAUAUUACGUGUC | -3.27 ± 0.34 | -1.82 ± 0.27
AAAGAGCAAUAUUACGCUGG | -4.07 ± 0.32 | -1.89 ± 0.31
UCAAAGCAAUAUUACGCGCC | -2.36 ± 0.24 | -1.24 ± 0.28
UUCAAGCAAUAUUACGGGAC | -2.58 ± 0.16 | -2.43 ± 0.28
ACAGAGCAAUAUUACGAAAA |  | -3.05 ± 0.4
AUGUAGCAAUAUUACGCUGC | -2.72 ± 0.41 | -2.69 ± 0.48
AUGUAGCAAUAUUACGCGAC | -1.38 ± 0.17 | -1.76 ± 0.36
AAAUAGCAAUAUUACGUGAG | -1.19 ± 0.078 | -0.609 ± 0.11
AGGAAGCAAUAUUACGUAAA | -2.59 ± 0.18 | -1.88 ± 0.18
AAAUAGCAAUAUUACGGCGA | -0.48 ± 0.11 | -0.0146 ± 0.12
AGGUAGCAAUAUUACGACUG | -0.0476 ± 0.015 | -0.0252 ± 0.034
CGCGAGCAAUAUUACGGCUU | -3.01 ± 0.42 | -2.54 ± 0.26
GUACAGCAAUAUUACGAAGC | -1.83 ± 0.17 | -1.5 ± 0.28
AGCGAGCAAUAUUACGUUCG | -2.14 ± 0.37 | -2.67 ± 0.38
AUUCAGCAAUAUUACGGUAA | -0.935 ± 0.086 | -0.659 ± 0.078
UGGCAGCAAUAUUACGACGU | -1.84 ± 0.16 | -0.565 ± 0.2
UGACAGCAAUAUUACGGACA | -0.474 ± 0.08 | 0.431 ± 0.12
CAGAAGCAAUAUUACGAUGA | -2.08 ± 0.12 | -0.735 ± 0.086
GUAUAGCAAUAUUACGUCUC | -1.21 ± 0.15 | -0.282 ± 0.15
CGUAAGCAAUAUUACGCGAG | -1.63 ± 0.2 | -2.56 ± 0.44

Sequence | self-splicing fitness (ln) (30 °C) | self-splicing fitness (ln) (37 °C)
AGUCAGCAAUAUUACGCCAG | -3.55 ± 0.34 | -2.47 ± 0.31
UAGAAGCAAUAUUACGGUAC | -3.25 ± 0.37 | 
UACGAGCAAUAUUACGCGAA | -2.89 ± 0.32 | -2.72 ± 0.26
CAGAAGCAAUAUUACGCCAU | -2.66 ± 0.14 | -2.77 ± 0.18
CCCAAGCAAUAUUACGAGAC | -3.64 ± 0.21 | -1.4 ± 0.17
CCUGAGCAAUAUUACGUGCA | -3.09 ± 0.21 | -1.53 ± 0.26
AGAUAGCAAUAUUACGUUCA | -0.78 ± 0.13 | -0.5 ± 0.15
CUCCAGCAAUAUUACGUGUC | -3.56 ± 0.22 | -2.55 ± 0.23
CUAUAGCAAUAUUACGUUUC | -3.68 ± 0.23 | -2.86 ± 0.31
CUGAAGCAAUAUUACGUACG | 0.694 ± 0.073 | 0.514 ± 0.09
CUCGAGCAAUAUUACGGGGU | -3.46 ± 0.18 | -2.54 ± 0.22
CGGUAGCAAUAUUACGUGAC |  | -2.73 ± 0.41
CGGUAGCAAUAUUACGGAUA |  | -1.54 ± 0.3
UGUAAGCAAUAUUACGGUGA | -2.08 ± 0.11 | -0.909 ± 0.13
UUGUAGCAAUAUUACGAUAC | -1.91 ± 0.22 | 
GUCUAGCAAUAUUACGGGCA | -3.1 ± 0.44 | -1.43 ± 0.21
CUCUAGCAAUAUUACGACGC |  | -1.31 ± 0.35
AUGUAGCAAUAUUACGGAGU | -3.01 ± 0.23 | -1.2 ± 0.18
AGCUAGCAAUAUUACGGCGU | 0.111 ± 0.11 | -0.724 ± 0.13
CCCCAGCAAUAUUACGUUUA | -3.99 ± 0.16 | -2.35 ± 0.15
UAUUAGCAAUAUUACGGGGG | -4.15 ± 0.46 | -2.75 ± 0.34
UCGUAGCAAUAUUACGAGCG | -0.988 ± 0.14 | -1.13 ± 0.21

From the supplement of paper PMC7877785
